Test results taken from US20160215067A1 (CASE WESTERN RESERVE UNIVERSITY, published 2016).
Where a chain is given by its changes, count along the chain named.

Key:
[1] = biological target: anti-CEP humanized antibody (anti-CEP huAb), full length; experiment: competitive ELISA, CEP-BSA coated, inhibitor preincubated with anti-CEP huAb
[2] = biological target: anti-CEP humanized antibody (anti-CEP huAb), full length; experiment: competitive ELISA, CEP-BSA coated
[3] = biological target: T1, CEP-modified human serum albumin (CEP-HSA) (human, UniProt P02768 25-609, 2-(omega-carboxyethyl)pyrrole (CEP) derivatives of primary amino groups; sites and number not stated); experiment: BIAcore 3000, CEP-HSA immobilized on CM5 chip, single-cycle kinetics, bivalent fit
T1 construct: The antibodies recognise the CEP hapten on the carrier protein

[4] = biological target: T1, CEP-modified human serum albumin …; experiment: BIAcore SPR, single-cycle kinetics; CEP-HSA immobilised as ligand, antibody as analyte [panel A, table under the sensorgram]
Procedure: (§1) The binding affinity of each antibody was measured using BIAcore technology.

[5] = biological target: T1, CEP-modified human serum albumin …; experiment: BIAcore, CEP-HSA on chip
Procedure: as §1

[6] = biological target: T1, CEP-modified human serum albumin …; experiment: BIAcore SPR, single-cycle kinetics; CEP-HSA immobilised as ligand, antibody as analyte [panel B, table under the sensorgram]
Procedure: as §1

[7] = biological target: T1, CEP-modified human serum albumin …; experiment: BIAcore single-cycle kinetic analysis
[8] = biological target: T1, CEP-modified human serum albumin …; experiment: BIAcore SPR, single-cycle kinetics; CEP-HSA immobilised as ligand, antibody as analyte [table under the sensorgram]

CPP-HSA (from UniProt P02768 25-609)
IC50 [1]: 10.5 µM

CEP-modified human serum albumin (CEP-HSA) (from UniProt P02768 25-609)
IC50 [1]: 0.0056 µM

CHP-BSA (from UniProt P02769 25-607)
fold lower cross-reactivity than with anti-CEP mumAb [2]: < 10 fold
IC50 [1]: 4690 µM

B1: anti-CEP murine monoclonal antibody (anti-CEP mumAb), hybridoma clone 2D3.3G9-1 (antibody, mouse IgG2a, V domains shown)
VH: QIQLIQSGPELKKPGETVKISCKPSGYAFTKYGMDWVKQAPGEGLKWMGRINTYTGEPTYADDFKGRFAFSLEASASTAYLQINNLKNEDTATYFCARRRDGYPFAYWGQGTLVTVSS
VL: DIVMTQSHKFMSTSVRDRVSITCKASQDVSTAVAWYQQKPGQSPKILIYSASYRFPGVPDRFTGSGSGTDFTFTISSVQAEDLAVYYCHQHYFIPYTFGGGTKLEIK
notes: also called murine anti-CEP mAb; mouse counterpart
Kd [3]: 0.00016 µM
koff [4]: 0.00377 s⁻¹
kon [4]: 2.36e+07 M⁻¹ s⁻¹

B2: anti-CEP humanized antibody (anti-CEP huAb), full length (antibody, human IgG1, V domains shown)
VH: QVQLVQSGAEVKKPGASVKVSCKASGYAFTKYGMDWVRQAPGQGLEWMGRINTYTGEPTYADDFKGRVTITADTSTSTAYMELSSLRSEDTAVYYCARRRDGYPFAYWGQGTLVTVSS
VL: DIVMTQSPDSLAVSLGERATINCKASQDVSTAVAWYQQKPGQPPKLLIYSASYRFPGVPDRFSGSGSGTDFTLTISSLQAEDVAVYYCHQHYFIPYTFGGGTKLEIK
notes: Human IgG1 heavy constant region (vector pFUSE-CHIg-hG1) and human kappa constant region (pFUSE2-CLIg-hk); expressed in CHO-S cells, clone A1; also called original anti-CEP huAb; anti-CEP humAb
fold weaker affinity than anti-CEP mumAb [5]: ~10 fold
Kd [3]: 0.00158 µM
koff [6]: 0.00025 s⁻¹
kon [6]: 159000 M⁻¹ s⁻¹

B3: Mutant 2F1, full length anti-CEP huAb mutant (antibody, V domains shown)
VH: B2 VH with F29L, D101G
VL: B2 VL
Kd [7]: 0.00074 µM
fold stronger affinity than original anti-CEP huAb [7]: ~2 fold
koff [8]: 0.000228 s⁻¹
kon [8]: 308000 M⁻¹ s⁻¹
